Results on two substances are retold here after patent US20050148516.

For this data set, the system named is heparan sulfate proteoglycan (HSPG) on HUVEC.

GnT-VΔ73: the “amount of FGF-2 released from HSPG on HUVEC (FGF-2 ELISA of the supernatant, 4 °C)” value is “GnT-VΔ73 and KRKRKK peptide released FGF-2”.

GnT-VΔ188: the “amount of FGF-2 released from HSPG on HUVEC (FGF-2 ELISA of the supernatant, 4 °C)” value is “Like GnT-VΔ73, also GnT-VΔ188 and GnT-VΔ233 released FGF-2”.
